Data published in article PMC6382863.

Legend:
[1] = biological target: Bunyamwera virus (BUNV) Gc head domain (aa 478–721) (Bunyamwera virus) (UniProt P04505); assay: crystal structure
[2] = biological target: La Crosse virus (LACV) Gc head domain (aa 477–722), tryptic fragment of the variable region (aa 477–911) (La Crosse virus) (UniProt Q8JPR1); assay: crystal structure

Chain of Bunyamwera virus (BUNV) Gc head domain (aa 478–721) (P04505 478-721): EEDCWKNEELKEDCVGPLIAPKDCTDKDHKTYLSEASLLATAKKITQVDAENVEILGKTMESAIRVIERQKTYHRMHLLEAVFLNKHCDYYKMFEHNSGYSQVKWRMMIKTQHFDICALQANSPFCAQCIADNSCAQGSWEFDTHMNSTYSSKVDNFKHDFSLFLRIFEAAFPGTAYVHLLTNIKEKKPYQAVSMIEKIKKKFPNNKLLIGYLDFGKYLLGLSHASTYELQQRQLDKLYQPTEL
Chain of La Crosse virus (LACV) Gc head domain (aa 477–722), tryptic fragment of the variable region (aa 477–911) (Q8JPR1 477-722): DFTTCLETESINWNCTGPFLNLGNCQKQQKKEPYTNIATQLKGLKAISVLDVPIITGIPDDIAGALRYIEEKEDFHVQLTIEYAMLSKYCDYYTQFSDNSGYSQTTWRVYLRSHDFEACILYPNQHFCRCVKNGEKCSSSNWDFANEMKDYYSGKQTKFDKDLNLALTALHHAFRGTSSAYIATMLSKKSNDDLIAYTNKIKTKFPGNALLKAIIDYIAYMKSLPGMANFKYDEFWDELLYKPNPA

Substance	stoichiometry N [1]	stoichiometry N [2]
Bunyamwera virus (BUNV) Gc head domain (aa 478–721) (from UniProt P04505 478-721) (domain or fragment)	3	
La Crosse virus (LACV) Gc head domain (aa 477–722), tryptic fragment of the variable region (aa 477–911) (from UniProt Q8JPR1 477-722) (domain or fragment)		3
